Results as given in patent US8394641B2, “Method of hydrolyzing an enzymatic substrate” (Advanced Liquid Logic Inc., priority 2009, dated 2013).
Like-named read-outs stand apart in the source and are kept apart here. Values belong to the molecule of their own block, whether it stands above or below them.

Assays:
acid β-D-glucosidase = target: T1, acid β-D-glucosidase (Homo sapiens, UniProt P04062); assay: Droplet-based enzymatic assay for acid β-D-glucosidase (Gaucher), comparison of substrates; format: biochemical; details: droplet actuator, Gaucher's disease testing
T1 sequence (P04062 40-536): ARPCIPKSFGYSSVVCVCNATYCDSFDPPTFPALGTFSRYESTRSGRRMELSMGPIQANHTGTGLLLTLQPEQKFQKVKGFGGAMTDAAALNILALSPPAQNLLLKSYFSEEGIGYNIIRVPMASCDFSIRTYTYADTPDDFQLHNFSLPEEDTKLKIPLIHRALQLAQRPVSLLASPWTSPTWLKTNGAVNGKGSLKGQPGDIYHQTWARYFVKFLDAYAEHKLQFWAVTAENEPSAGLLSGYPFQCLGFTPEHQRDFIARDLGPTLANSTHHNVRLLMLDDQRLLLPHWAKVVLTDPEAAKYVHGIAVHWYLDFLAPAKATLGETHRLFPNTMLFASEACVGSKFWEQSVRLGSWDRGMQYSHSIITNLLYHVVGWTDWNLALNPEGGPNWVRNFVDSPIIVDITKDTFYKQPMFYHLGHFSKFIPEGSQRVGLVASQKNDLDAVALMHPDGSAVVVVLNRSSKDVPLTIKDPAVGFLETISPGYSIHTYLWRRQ
Source text: The invention provides assay methods for detection of Gaucher and Niemann-Pick diseases on a droplet actuator. Gaucher's disease and Niemann-Pick's disease are caused by deficient activity of the lysosomal enzymes acid β-D-glucosidase and acid sphingomyelinase, respectively. In one embodiment, the invention provides methods for a droplet-based enzymatic assay for acid β-D-glucosidase activity. For example, a multifluoroethylumbelliferyl-β-D-glucoside, such as a 4-pentafluoroethylumbelliferyl-β-D-glucoside, may be used as a substrate fluid in a droplet-based enzymatic assay for acid β-D-glucosidase enzyme activity. The increased number of fluorines makes the substrate fluid more labile to hydrolysis. The excitation/emission wavelengths for 4-pentafluoroethylumbelliferyl-β-D-glucoside are 385/495 nm.

[1] = target: iduronate-2-sulfate sulphatase (IDS) (Homo sapiens, UniProt P22304); details: cited from earlier work
iduronate-2-sulfate sulphatase (IDS), sequence (P22304 34-550): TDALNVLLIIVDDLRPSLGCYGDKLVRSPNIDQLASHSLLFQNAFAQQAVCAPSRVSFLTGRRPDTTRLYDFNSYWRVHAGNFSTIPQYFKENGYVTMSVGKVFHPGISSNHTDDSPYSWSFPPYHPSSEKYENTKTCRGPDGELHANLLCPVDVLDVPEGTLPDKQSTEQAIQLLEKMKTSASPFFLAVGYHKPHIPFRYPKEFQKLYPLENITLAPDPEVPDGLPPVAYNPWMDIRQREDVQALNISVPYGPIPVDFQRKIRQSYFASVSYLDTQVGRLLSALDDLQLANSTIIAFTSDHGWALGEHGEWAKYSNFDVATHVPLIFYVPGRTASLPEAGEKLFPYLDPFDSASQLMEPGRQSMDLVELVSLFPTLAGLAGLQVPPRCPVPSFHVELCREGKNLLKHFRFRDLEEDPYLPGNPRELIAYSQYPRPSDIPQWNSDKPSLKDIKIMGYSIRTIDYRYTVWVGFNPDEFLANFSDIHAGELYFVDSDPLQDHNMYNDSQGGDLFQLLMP

[2] = Recombinant iduronidase standard curve in the presence of BSA on a droplet actuator; format: biochemical; details: after stop buffer, room temperature
Description: Serial dilutions of recombinant iduronidase were prepared in 0.05 M Na-Acetate/0.05 M Acetic acid buffer, pH 5.0 from a stock of 0.5 mg/mL recombinant iduronidase containing 1 mg/mL molecular biology grade bovine serum albumin (BSA). A substrate fluid was prepared in 0.05 M Na Acetate, pH 5.0 containing 1 mM 4-methylumbelliferyl-α-L-idopyranosiduronic acid (4-MUI) and 100 μM D-saccharic acid 1,4-lactone.
The digital microfluidic protocol for the iduronidase standard curve included the following steps: • 1. Mix one 1× droplet of iduronidase and one 1× droplet of substrate fluid to yield a 2× reaction droplet; • 2. Split the 2× reaction droplet into two 1× reaction droplets; • 3. Dispense 11 droplets of stop buffer (sodium carbonate pH 10.1, 0.01% Tween® 20) and combine them with the first set of 1× reaction droplets; • 4. Detect end point fluorescence at 365 nm (t=0); • 5. Incubate the second set of 1× reaction droplets for 1 h at room temperature; • 6. After 1 h of incubation, dispense 11 droplets of stop buffer and combine with the reaction droplets; and • 7. Detect end point fluorescence at 365 nm (t=1 h).

[3] = stock solution; cited from earlier work
[4] = Modified Hunter's assay (IDS) on a droplet actuator, recombinant iduronidase as second enzyme; format: biochemical, human
Description: Reagent solutions were prepared on-bench, and the experiment was performed on a droplet actuator using a digital microfluidic protocol. Different dilutions (1/10×, 1/4×, 1/3×, 1/2× and 1×) of plasma samples from normal (n=1) and affected (n=1) subjects were prepared using molecular grade water. A blank sample was prepared using 1 μg/mL of recombinant iduronidase in 0.05 M Na-Acetate/0.05 M Acetic acid buffer pH 5.0. A working stock of 10 μg/mL recombinant iduronidase in 0.05 M Na-Acetate/0.05 M Acetic acid buffer pH 5.0 was prepared from a stock of 0.5 mg/mL iduronidase (supplied in 0.05 M Na-Acetate with 150 mM NaCl, 0.02% Brij-35 (w/v) pH 3.5). A working stock of 1.25 mM MU-αIdoA-S substrate fluid was prepared in 0.1 M Na-Acetate, 0.1M Acetic Acid buffer pH 5.0 containing 10 mM Pb-Acetate. A substrate fluid was prepared by mixing 1 μL of 10 μg/mL recombinant iduronidase and 9 μL of 1.25 mM MU-αIdoA-S.
In one example, the digital microfluidic protocol for testing plasma sample dilutions included the following steps: • 1. […] Detect fluorescence at 364 nm (t=0 h); • 7. […] Detect fluorescence at 364 nm (t=8 h).
Eight different normal plasma samples were analyzed using two concentrations of recombinant iduronidase (i.e., 1 μg/mL and 10 μg/mL) in the modified Hunter's assay. […]

enzymatic activity compared with the 4-methylumbelliferyl-β-D-glucoside substrate fluid (acid β-D-glucosidase): as much as eight-fold greater
Molecule: O=c1cc(C(F)(F)C(F)(F)F)c2ccc(O[C@@H]3O[C@H](CO)[C@@H](O)[C@H](O)[C@H]3O)cc2o1 [4-pentafluoroethylumbelliferyl-β-D-glucoside]

Molecule: Cl [chloride]
IDS activity inhibited ([1]; 30 mM chloride): 50%
IDS activity inhibited ([1]; 250 mM chloride): completely inhibited

Relative fluorescence at t = 1 hrs incubation (Rfu) ([2]; Idu 0.001 μg/mL): 34.6948 Rfu
Relative fluorescence at t = 1 hrs incubation (Rfu) ([2]; Idu 0.01 μg/mL): 179.1927 Rfu
Relative fluorescence at t = 1 hrs incubation (Rfu) ([2]; Idu 0.1 μg/mL): 999.3997 Rfu
Relative fluorescence at t = 1 hrs incubation (Rfu) ([2]; Idu 1 μg/mL): 7427.665 Rfu
concentration dependence of Hunter's assay activity ([4]; 1 μg/mL vs 10 μg/mL, eight normal plasma samples): higher activity at 10 μg/mL
liberation of 4-MU from 4-methylumbelliferyl-α-L-iduronic acid in the IDS assay ([4]; 1 μg/ml, data not shown): sufficient
B1: recombinant iduronidase: Recombinant α-L-Iduronidase from R&D Systems, second enzyme of the Hunter's assay (protein, UniProt P35475 28-653, looked up)
Alpha-L-iduronidase: APHLVHVDAARALWPLRRFWRSTGFCPPLPHSQADQYVLSWDQQLNLAYVGAVPHRGIKQVRTHWLLELVTTRGSTGRGLSYNFTHLDGYLDLLRENQLLPGFELMGSASGHFTDFEDKQQVFEWKDLVSSLARRYIGRYGLAHVSKWNFETWNEPDHHDFDNVSMTMQGFLNYYDACSEGLRAASPALRLGGPGDSFHTPPRSPLSWGLLRHCHDGTNFFTGEAGVRLDYISLHRKGARSSISILEQEKVVAQQIRQLFPKFADTPIYNDEADPLVGWSLPQPWRADVTYAAMVVKVIAQHQNLLLANTTSAFPYALLSNDNAFLSYHPHPFAQRTLTARFQVNNTRPPHVQLLRKPVLTAMGLLALLDEEQLWAEVSQAGTVLDSNHTVGVLASAHRPQGPADAWRAAVLIYASDDTRAHPNRSVAVTLRLRGVPPGPGLVYVTRYLDNGLCSPDGEWRRLGRPVFPTAEQFRRMRAAEDPVAAAPRPLPAGGRLTLRPALRLPSLLLVHVCARPEKPPGQVTRLRALPLTQGQLVLVWSDEHVGSKCLWTYEIQFSQDGKAYTPVSRKPSTFNLFVFSPDTGAVSGSYRVRALDYWARPGPFSDPVPYLEVPVPRGPPSPGNP
specific activity of stock enzyme [3]: > 7.5 nmol/min/µg
